These results are taken from paper PMC6791878, “Evaluation of integrin αvβ6 cystine knot PET tracers to detect cancer and idiopathic pulmonary fibrosis” (Nature Communications, 2019).

For data set [1], the system named is pancreatic cancer. Put plainly: [18F]FP-R01-MG-F2 vs [18F]FDG PET/CT in a pancreatic cancer patient (Stanford). The following applies: FDG, 1 hr. How it is done: The line was flushed with at least 10 ml normal saline after injection. • Blood samples for blood time activity measurements were taken at 1, 3, 5, and 10 min after tracer administration and then at 30-minute intervals for up to 3 h after tracer injection. The counts in whole blood and plasma were measured by gamma counter (Perkin Elmer Wizard 1470). […] The scan was performed over the abdominal region to include the pancreas. Attenuation correction was employed via CT (120 kV, 10 mA). […] The scan was performed over the chest region. Attenuation correction was employed via CT (120 kV, 10 mA). • Static total-body (vertex-to-toe) PET/CT scans were acquired at 60 min and 120 min post injection. CT was performed at 120 kV; it was dose-modulated based on body habitus with current ranging from 10-105 mA for the 60-minute scan. […] EKG data was analyzed to assess changes in overall rhythm of the heart. • On the day of the study, participants were asked to void frequently to reduce radiation exposure. Urine samples were collected at prior to tracer administration (baseline), prior to the static PE scans, at the end of the study day 1, and at the follow up visits 1 day and 7 days after tracer administration.
Upon co-registration of the PET and CT images, the CT images were used to determine regions of interest for the organs or tissues reported in the manuscript. These ROIs were applied to the PET images of the brain, pituitary gland, breast, lower and upper large intestine, small intestine, stomach, pancreas, heart wall, liver, lung, muscle, red marrow, bone, skin, and thyroid gland. For high uptake organs such as the kidneys, bladder and for the whole body, threshold-based segmentation of PET images were used to determine a close-fitting ROI around the entire organ or whole body. In order to determine accuracy, these PET-derived ROIs were compared to the CT overlay for a close match.

In data set [2] the target is T1, human integrin αvβ6 (Homo sapiens, UniProt P06756+P18564, DEL708-788).
T1 construct: purchased R&D Systems
T1 sequence (P06756 31-992 limits assumed, stated change not applied): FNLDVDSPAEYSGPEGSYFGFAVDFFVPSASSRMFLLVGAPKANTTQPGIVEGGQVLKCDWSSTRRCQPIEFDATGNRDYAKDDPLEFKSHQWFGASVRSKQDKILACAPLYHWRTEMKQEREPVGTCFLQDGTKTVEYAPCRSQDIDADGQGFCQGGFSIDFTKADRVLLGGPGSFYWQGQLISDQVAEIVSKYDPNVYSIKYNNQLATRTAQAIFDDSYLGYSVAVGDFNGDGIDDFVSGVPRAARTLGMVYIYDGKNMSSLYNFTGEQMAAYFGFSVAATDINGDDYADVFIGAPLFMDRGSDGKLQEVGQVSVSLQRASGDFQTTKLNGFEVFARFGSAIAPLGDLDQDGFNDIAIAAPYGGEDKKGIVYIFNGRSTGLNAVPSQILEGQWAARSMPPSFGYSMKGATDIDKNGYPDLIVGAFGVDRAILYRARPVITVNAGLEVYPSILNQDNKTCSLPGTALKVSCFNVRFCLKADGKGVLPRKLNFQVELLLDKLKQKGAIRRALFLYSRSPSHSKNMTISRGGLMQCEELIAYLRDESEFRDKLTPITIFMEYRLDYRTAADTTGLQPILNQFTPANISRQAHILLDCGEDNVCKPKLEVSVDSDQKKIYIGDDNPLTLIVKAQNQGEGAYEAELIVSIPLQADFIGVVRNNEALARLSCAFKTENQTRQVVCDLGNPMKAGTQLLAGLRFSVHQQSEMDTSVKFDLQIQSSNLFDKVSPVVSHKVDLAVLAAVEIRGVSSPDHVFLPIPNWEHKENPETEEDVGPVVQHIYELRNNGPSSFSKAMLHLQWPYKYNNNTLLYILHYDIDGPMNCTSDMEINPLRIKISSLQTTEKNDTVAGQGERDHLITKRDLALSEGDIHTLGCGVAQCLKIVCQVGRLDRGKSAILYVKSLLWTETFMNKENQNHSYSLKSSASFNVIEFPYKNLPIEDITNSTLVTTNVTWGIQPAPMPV
T1 sequence (P18564 22-707 limits assumed, stated change not applied): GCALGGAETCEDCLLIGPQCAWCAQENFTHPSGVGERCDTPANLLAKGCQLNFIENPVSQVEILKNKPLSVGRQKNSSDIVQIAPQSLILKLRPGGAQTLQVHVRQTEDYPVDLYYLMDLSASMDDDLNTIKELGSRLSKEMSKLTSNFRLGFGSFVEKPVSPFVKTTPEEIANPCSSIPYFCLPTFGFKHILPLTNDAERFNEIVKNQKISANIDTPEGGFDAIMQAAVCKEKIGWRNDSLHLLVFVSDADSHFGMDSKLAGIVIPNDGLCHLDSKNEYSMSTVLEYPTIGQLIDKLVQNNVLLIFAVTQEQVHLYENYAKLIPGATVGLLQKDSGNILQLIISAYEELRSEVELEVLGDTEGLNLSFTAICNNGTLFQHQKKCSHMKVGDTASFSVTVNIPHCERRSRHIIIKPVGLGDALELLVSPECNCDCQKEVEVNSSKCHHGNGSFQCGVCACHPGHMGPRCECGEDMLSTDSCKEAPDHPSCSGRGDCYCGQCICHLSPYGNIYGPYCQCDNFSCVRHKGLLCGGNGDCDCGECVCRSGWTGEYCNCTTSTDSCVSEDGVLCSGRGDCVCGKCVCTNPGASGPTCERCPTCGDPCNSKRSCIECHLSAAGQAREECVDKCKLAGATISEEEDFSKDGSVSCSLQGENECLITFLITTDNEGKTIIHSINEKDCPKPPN
Put plainly: Competition binding (IC50) against yeast surface-displayed R01-MG. The note with it: compete with R01-MG displayed on yeast.

A short description of data set [3]: in vivo. The following applies: female, athymic nude (Nu/Nu), mouse, iv, total radioactivity; for tissue uptake at 2 h: microPET 2 hr; for tissue uptake at 4 h: microPET 4 hr; for tissue uptake at 24 h: microPET 24 hr.
Protocol: (§1) Female athymic nude mice, 4–6 weeks old (Charles River), were subcutaneously shoulder-injected with 10^7 cells suspended in 100 µL PBS. Mice were used for imaging and biodistribution studies when xenografted tumors grew to a diameter of ~1 cm.
(§2) Tumor-bearing Nu/Nu female mice (n = 3 for each probe) were anesthetized using 2% isoflurane in oxygen and injected with ~100 µCi (~0.15 nmol) of the tracers described above via the tail vein. Five-minute static PET scans were acquired on an Inveon PET-CT or Inveon D-PET scanner (Siemens Healthcare, Malvern PA). Images were reconstructed by a two-dimensional ordered expectation maximum subset algorithm and calibrated as described below. ROIs were drawn over the tumor on decay-corrected whole-body images using Inveon Research Workplace (IRW) software (Siemens) or ASIPro VM software (Siemens). ROIs were converted to counts g^−1 min^−1, and %ID g^−1 values were determined assuming a tissue density of 1 g ml^−1.
(§3) Scanner activity calibration was performed to map between PET image units and units of radioactivity concentration. A preweighed 50-mL centrifuge tube was filled with distilled water and ^64CuCl2 (∼9.3 MBq [∼250 μCi] as determined by the dose calibrator) was used to simulate the whole body of the mouse. This tube was weighed, centered in the scanner aperture, and imaged for a 30-min static image, single bed position. From the sample weight and assuming a density of 1 g ml^−1, the activity concentration in the bottle was calculated in units of μCi mL^−1. Eight planes were acquired in the coronal section. A rectangular region of interest (ROI) (counts/pixel/s) was drawn on the middle of eight coronal planes.
The subject of data set [4] is αvβ6 expressing BxPC3 pancreatic cancer xenografts.
Protocol: as §1, §2, §3
The mark [5] stands for this setting: tumor (BxPC3 xenograft), Tumor avb6(+), individual mice.
Where [6] appears, read: microPET 1 hr, individual mice, listed as Ro1-MR DOTA Cu-64.
The mark [7] stands for this setting: microPET 4 hr, individual mice, listed as R01-MR DOTA Cu-64.
Setting [8] is: microPET 24 hr, individual mice, listed as R01-MR DOTA Cu-64.

SMILES strings stand for the structures. “And” between values parts separate entries of the source, which are not always exact repeats. Equal entries are not always repeated. Where two headings read alike, the source gives them in different places. Where a SMILES comes first, the peptide text is derived from it. Bridges are numbered along the chain shown (N, C = ends). The star is where a group is joined. DOTA = O=C(O)CN1CCN(CC(=O)O)CCN(CC(=O)*)CCN(CC(=O)O)CC1
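For Tumor avb6(+) in this document: shoulder subcutaneous xenografts near 1 cm, tracer given via tail vein, 5-min static PET, ROI activity on decay-corrected images converted to %ID/g with tissue density taken as 1 g/mL.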
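For kidney in this document: shoulder subcutaneous xenografts near 1 cm, tracer given via tail vein, 5-min static PET, ROI activity on decay-corrected images converted to %ID/g with tissue density taken as 1 g/mL.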
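For kidney uptake relative to the other two candidates in this document: shoulder subcutaneous xenografts near 1 cm, tracer given via tail vein, 5-min static PET, ROI activity on decay-corrected images converted to %ID/g with tissue density taken as 1 g/mL.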
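For tumor in this document: shoulder subcutaneous xenografts near 1 cm, tracer given via tail vein, 5-min static PET, ROI activity on decay-corrected images converted to %ID/g with tissue density taken as 1 g/mL.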

`OC[C@H]1O[C@@H](O)[C@H]([18F])[C@@H](O)[C@@H]1O` [FDG]: in data set [1], the “Bl, PET uptake” value is given as 21.1; the “Bn, PET uptake” value came to 1.4; the “Br, PET uptake” value was 8.1; the “Brs, PET uptake” value is 0.32. In addition, in data set [1], the “CA, PET uptake” value is on record as 4.1; the “HW, PET uptake” value amounted to 2; the “LLI, PET uptake” value was found to be 2.2; the “Ln, PET uptake” value was 0.59. In addition, in data set [1], the “Lv, PET uptake” value amounted to 2.9; the “Ms, PET uptake” value stood at 0.53; the “RM, PET uptake” value was determined as 0.29; the “SI, PET uptake” value was determined as 2.5. For the same molecule, in data set [1], the “Sk, PET uptake” value is listed as 0.38; the “Sp, PET uptake” value came out at 2.9; the “St, PET uptake” value worked out at 0.16; the “Tr, PET uptake” value turned out to be 0.9. Also, in data set [1], the “ULI, PET uptake” value was 1.8 and the “WB, PET uptake” value was 0.79.

As for `CC[C@H](C)[C@@H]1NC(=O)[C@@H](NC(=O)CNC(=O)C(C)F)CSSC[C@@H]2NC(=O)[C@H](C)NC(=O)CNC(=O)[C@@H]3CCCN3C(=O)[C@@H]3CSSC[C@@H](C(=O)NCC(N)=O)NC(=O)[C@H](Cc4ccc(O)cc4)NC(=O)CNC(=O)[C@H](CC(N)=O)NC(=O)CNC(=O)[C@H](CCCNC(=N)N)NC(=O)[C@H](CSSC[C@H](NC(=O)[C@H](CCCNC(=N)N)NC(=O)[C@H](Cc4ccccc4)NC(=O)[C@H](CC(C)C)NC(=O)[C@H](CC(C)C)NC(=O)[C@H]([C@@H](C)O)NC(=O)CNC(=O)[C@H](CC(C)C)NC(=O)[C@H](CC(=O)O)NC(=O)[C@H]([C@@H](C)O)NC(=O)[C@H](CCCNC(=N)N)NC(=O)CNC(=O)[C@H](CC(N)=O)NC(=O)[C@H](CC(C)C)NC1=O)C(=O)N[C@@H](CCCNC(=N)N)C(=O)N[C@@H](CCCNC(=N)N)C(=O)N[C@@H](CC(=O)O)C(=O)N[C@@H](CO)C(=O)N[C@@H](CC(=O)O)C(=O)N3)NC(=O)[C@H]([C@@H](C)CC)NC2=O` (some centres unmarked) [[^19F]FP-R01-MG-F1], the “binding affinity for integrin avb6 in competition binding (IC50), in words” value in data set [2] is “subnanomolar”.

For `CC[C@H](C)[C@@H]1NC(=O)[C@@H](NC(=O)CNC(=O)CN2CCN(CC(=O)O)CCN(CC(=O)O)CCN(CC(=O)O)CC2)CSSC[C@@H]2NC(=O)[C@H](C)NC(=O)CNC(=O)[C@@H]3CCCN3C(=O)[C@@H]3CSSC[C@@H](C(=O)NCC(N)=O)NC(=O)[C@H](Cc4ccc(O)cc4)NC(=O)CNC(=O)[C@H](CC(N)=O)NC(=O)CNC(=O)[C@H](CCCNC(=N)N)NC(=O)[C@H](CSSC[C@H](NC(=O)[C@H](CCCNC(=N)N)NC(=O)[C@H](Cc4ccccc4)NC(=O)[C@H](CC(C)C)NC(=O)[C@H](CC(C)C)NC(=O)[C@H]([C@@H](C)O)NC(=O)CNC(=O)[C@H](CC(C)C)NC(=O)[C@H](CC(=O)O)NC(=O)[C@H]([C@@H](C)O)NC(=O)[C@H](CCCNC(=N)N)NC(=O)[C@H](CCCNC(=N)N)NC(=O)[C@H](CC(N)=O)NC(=O)[C@H](CC(C)C)NC1=O)C(=O)N[C@@H](CCCNC(=N)N)C(=O)N[C@@H](CCCNC(=N)N)C(=O)N[C@@H](CC(=O)O)C(=O)N[C@@H](CO)C(=O)N[C@@H](CC(=O)O)C(=O)N3)NC(=O)[C@H]([C@@H](C)CC)NC2=O` [[^64Cu]DOTA-R01-MR, metal not drawn] ({DOTA}-GCILNRRTDLGTLLFRCRRDSDCPGACICRGNGYCG-NH2; disulfide 2-27, 17-29, 23-35), the tissue uptake at 1 h in data set [3] (kidney, PET, 1 h p.i., average ± SD, n = 3) was found to be 90 ± 3.64 %ID/g; in data set [3] (kidney, microPET 1 hr, individual mice), 94 %ID/g; in data set [3] (liver, PET, 1 h p.i., average ± SD, n = 3) it was 4.63 ± 0.09 %ID/g; in data set [3] (liver, microPET 1 hr, individual mice), 4.66 %ID/g; in data set [3] (muscle, PET, 1 h p.i., average ± SD, n = 3) it was 0.536 ± 0.004 %ID/g; in data set [3] (muscle, microPET 1 hr, individual mice), 0.533 %ID/g. Further, the tissue uptake at 1 h in data set [3] (tumor (BxPC3 xenograft), Tumor avb6(+), microPET 1 hr, individual mice, one line per mouse) was determined as 3.27 %ID/g; in data set [3] (tumor (BxPC3 xenograft, αvβ6 positive), Tumor, PET, 1 h p.i., αvβ6 (+), average ± SD, n = 3), 3.45 ± 0.34 %ID/g. The tissue uptake at 2 h in data set [3] (kidney, individual mice) amounted to 90.5 %ID/g; in data set [3] (liver, individual mice), 3.9 %ID/g; in data set [3] (muscle, individual mice), 0.516 %ID/g; in data set [3] (setting [5]), 3.46 %ID/g. In addition, the tissue uptake at 4 h in data set [3] (kidney, individual mice) stood at 82.3 %ID/g; in data set [3] (liver, individual mice) it was 3.44 %ID/g; in data set [3] (muscle, individual mice), 0.467 %ID/g; in data set [3] (setting [5]), 2.55 %ID/g. For the same molecule, the tissue uptake at 24 h in data set [3] (kidney, individual mice) is 37.8 %ID/g; in data set [3] (liver, individual mice) it was 6.99 %ID/g; in data set [3] (muscle, individual mice) it was 0.513 %ID/g; in data set [3] (setting [5]), 3.2 %ID/g. The tissue to tissue ratio at 1 h in data set [3] (tumor / muscle, 100 uCi) was determined as 6.43 ± 0.58. Further, the “kidney uptake relative to the other two candidates” value in data set [4] (1 h p.i.) was ~ 3 fold. The Tumor in data set [4] (PET, 1 h p.i., αvβ6 (+), average ± SD, n = 3) is ~ 3 %ID g^−1. Further, the Kidney is given as ~ 90 %ID g^−1 in data set [4] (PET, 1 h p.i., average ± SD, n = 3); 82.8 %ID/g in data set [4] (setting [7]); 38.15 %ID/g in data set [4] (setting [8]). In addition, the “Tumor avb6(+)” value in data set [4] (microPET 1 hr, individual mice, one line per mouse, listed as Ro1-MR DOTA Cu-64) is on record as 3.249 %ID/g; in data set [4] (setting [8]) it was 3.535 %ID/g. Also, the Liver in data set [4] (setting [6]) is listed as 4.713 %ID/g; in data set [4] (setting [7]) it was 4.22 %ID/g. In addition, the Muscle in data set [4] (setting [6]) was 0.5407 %ID/g and 0.5349 %ID/g; in data set [4] (microPET 2 hr, individual mice, listed as R01-MR DOTA Cu-64) it was 0.5174 %ID/g; in data set [4] (setting [7]) it was 0.4687 %ID/g; in data set [4] (setting [8]), 0.5142 %ID/g.

As a reminder, the tissue uptake is the percentage of the injected dose found per gram of tissue.
